From article PMC2615600
Positions count from the first letter of the chain named.

What was measured:
[1] = biological target: T1, phi29 DNA polymerase G410C/P562C (Bacteriophage phi29, UniProt P03680 1-575, G410C;P562C); assay: EMSA
T1 sequence: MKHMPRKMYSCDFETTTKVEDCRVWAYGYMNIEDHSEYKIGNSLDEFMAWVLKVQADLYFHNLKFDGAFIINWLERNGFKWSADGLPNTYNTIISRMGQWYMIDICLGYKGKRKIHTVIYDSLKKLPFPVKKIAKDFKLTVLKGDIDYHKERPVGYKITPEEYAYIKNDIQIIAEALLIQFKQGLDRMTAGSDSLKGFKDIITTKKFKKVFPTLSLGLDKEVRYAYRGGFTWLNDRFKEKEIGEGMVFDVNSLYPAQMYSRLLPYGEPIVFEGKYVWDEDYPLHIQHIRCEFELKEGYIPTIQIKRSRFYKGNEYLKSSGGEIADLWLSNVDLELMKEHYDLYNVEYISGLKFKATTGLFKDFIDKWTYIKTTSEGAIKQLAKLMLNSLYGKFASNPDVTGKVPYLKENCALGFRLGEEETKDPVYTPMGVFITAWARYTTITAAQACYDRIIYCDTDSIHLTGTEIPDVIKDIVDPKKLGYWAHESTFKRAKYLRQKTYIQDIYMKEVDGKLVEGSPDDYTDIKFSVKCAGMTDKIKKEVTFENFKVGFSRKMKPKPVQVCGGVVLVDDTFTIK

[2] = biological target: T2, phi29 DNA polymerase wild-type (Bacteriophage phi29, UniProt P03680 1-575); assay: EMSA
T2 sequence: T1 sequence with C410G, C562P

B1: sp1/sp1c+6 (15/21mer primer/template) (dsDNA)
DNA 1: GATCACAGTGAGTAC
DNA 2: TCTATTGTACTCACTGTGATC
B1 was tested, and the binding signal [1] was 3 % of wild-type (unit presumed) and the binding result [2] was “binds”.
